We go through two molecules from paper PMC9371972, “Cryo-EM structure of the human CST–Polα/primase complex in a recruitment state” (Nature Structural & Molecular Biology, 2022).

B2: CTC1 (subunit of the CST complex) (natural protein, human)
chain: MAAGRAQVPSSEQAWLEDAQVFIQKTLCPAVKEPNVQLTPLVIDCVKTVWLSQGRNQGSTLPLSYSFVSVQDLKTHQRLPCCSHLSWSSSAYQAWAQEAGPNGNPLPREQLLLLGTLTDLSADLEQECRNGSLYVRDNTGVLSCELIDLDLSWLGHLFLFPRWSYLPPARWNSSGEGHLELWDAPVPVFPLTISPGPVTPIPVLYPESASCLLRLRNKLRGVQRNLAGSLVRLSALVKSKQKAYFILSLGRSHPAVTHVSIIVQVPAQLVWHRALRPGTAYVLTELRVSKIRGQRQHVWMTSQSSRLLLLKPECVQELELELEGPLLEADPKPLPMPSNSEDKKDPESLVRYSRLLSYSGAVTGVLNEPAGLYELDGQLGLCLAYQQFRGLRRVMRPGVCLQLQDVHLLQSVGGGTRRPVLAPCLRGAVLLQSFSRQKPGAHSSRQAYGASLYEQLVWERQLGLPLYLWATKALEELACKLCPHVLRHHQFLQHSSPGSPSLGLQLLAPTLDLLAPPGSPVRNAHNEILEEPHHCPLQKYTRLQTPSSFPTLATLKEEGQRKAWASFDPKALLPLPEASYLPSCQLNRRLAWSWLCLLPSAFCPAQVLLGVLVASSHKGCLQLRDQSGSLPCLLLAKHSQPLSDPRLIGCLVRAERFQLIVERDVRSSFPSWKELSMPGFIQKQQARVYVQFFLADALILPVPRPCLHSATPSTPQTDPTGPEGPHLGQSRLFLLCHKEALMKRNFCVPPGASPEVPKPALSFYVLGSWLGGTQRKEGTGWGLPEPQGNDDNDQKVHLIFFGSSVRWFEFLHPGQVYRLIAPGPATPMLFEKDGSSCISRRPLELAGCASCLTVQDNWTLELESSQDIQDVLDANKSLPESSLTDLLSDNFTDSLVSFSAEILSRTLCEPLVASLWMKLGNTGAMRRCVKLTVALETAECEFPPHLDVYIEDPHLPPSLGLLPGARVHFSQLEKRVSRSHNVYCCFRSSTYVQVLSFPPETTISIPLPHIYLAELLQGGQSPFQATASCHIVSVFSLQLFWVCAYCTSICRQGKCTRLGSTCPTQTAISQAIIRLLVEDGTAEAVVTCRNHHVAAALGLCPREWASLLDFVQVPGRVVLQFAGPGAQLESSARVDEPMTMFLWTLCTSPSVLRPIVLSFELERKPSKIVPLEPPRLQRFQCGELPFLTHVNPRLRLSCLSIRESEYSSSLGILASSC
notes: human CTC1; the CTC1 chain of m1; Always present with STN1 and TEN1; written alone for subunit-to-subunit contacts; source: Tni insect cells (baculovirus), purified as part of CST; not shown: His6, N-terminal, cleaved; MBP, N-terminal, cleaved

What all share (conditions): both partners purified
In assay [1] the target is B2. The assay is described as follows: cross-linking; CX-MS of the SEC-reconstituted CST–POLA1^N complex with BS3 (0.35–0.75 mM, 25 °C, 30 min), 1 mg/mL.
The target of assay [2] is T1, CTC1–STN1–TEN1 (CST) complex (human, UniProt Q2NKJ3 1-1217; Q9H668 1-368; Q86WV5 1-123).
T1 construct: human CTC1; human STN1; human TEN1; Expressed from pBIG1a(His6-MBP-PreSc-CTC1/STN1/TEN1); tag removed with rhinovirus 3C protease; source: Tni insect cells (baculovirus), purified (Ni-NTA, 3C protease cleavage, heparin, SEC); not shown: His6, N-terminal, cleaved; MBP, N-terminal, cleaved; copies: + +
T1 sequence (Q9H668 whole entry, chain 2 of 2): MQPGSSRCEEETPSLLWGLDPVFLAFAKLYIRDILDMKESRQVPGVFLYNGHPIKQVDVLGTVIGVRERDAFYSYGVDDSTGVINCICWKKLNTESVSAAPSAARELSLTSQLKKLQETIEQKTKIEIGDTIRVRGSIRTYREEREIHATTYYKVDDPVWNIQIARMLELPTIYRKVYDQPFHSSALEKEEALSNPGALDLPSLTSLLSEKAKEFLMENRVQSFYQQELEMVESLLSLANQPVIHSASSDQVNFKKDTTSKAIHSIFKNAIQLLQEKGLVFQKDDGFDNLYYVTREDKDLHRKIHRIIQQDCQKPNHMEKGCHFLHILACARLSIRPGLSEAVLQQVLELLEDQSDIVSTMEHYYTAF
T1 sequence (Q86WV5 whole entry, chain 3 of 2): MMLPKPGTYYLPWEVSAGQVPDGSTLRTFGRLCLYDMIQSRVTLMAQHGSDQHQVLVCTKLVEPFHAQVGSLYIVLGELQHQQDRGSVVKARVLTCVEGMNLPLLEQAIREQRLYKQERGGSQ
The experiment in a line: SEC; purified proteins mixed (PP^FL and CST equimolar; CST with twofold molar excess of His6-MBP-POLA1^N), 1 h at 4 °C, HiLoad Superdex 200 16/600 PG, 20 mM HEPES pH 7.5, 150 mM NaCl, 0.5 mM TCEP, 5% glycerol. (In general: In gel filtration, larger molecules generally elute earlier.)

The target in assay [3] is T2, POLA1^FL (subunit of PP^FL) (human, UniProt P09884 1-1462).
T2 construct: the POLA1 chain of m3; Always present with POLA2, PRIM1 and PRIM2; written alone for subunit-to-subunit cross-links; source: Tni insect cells (baculovirus), purified as part of PP^FL
T2 sequence (looked up): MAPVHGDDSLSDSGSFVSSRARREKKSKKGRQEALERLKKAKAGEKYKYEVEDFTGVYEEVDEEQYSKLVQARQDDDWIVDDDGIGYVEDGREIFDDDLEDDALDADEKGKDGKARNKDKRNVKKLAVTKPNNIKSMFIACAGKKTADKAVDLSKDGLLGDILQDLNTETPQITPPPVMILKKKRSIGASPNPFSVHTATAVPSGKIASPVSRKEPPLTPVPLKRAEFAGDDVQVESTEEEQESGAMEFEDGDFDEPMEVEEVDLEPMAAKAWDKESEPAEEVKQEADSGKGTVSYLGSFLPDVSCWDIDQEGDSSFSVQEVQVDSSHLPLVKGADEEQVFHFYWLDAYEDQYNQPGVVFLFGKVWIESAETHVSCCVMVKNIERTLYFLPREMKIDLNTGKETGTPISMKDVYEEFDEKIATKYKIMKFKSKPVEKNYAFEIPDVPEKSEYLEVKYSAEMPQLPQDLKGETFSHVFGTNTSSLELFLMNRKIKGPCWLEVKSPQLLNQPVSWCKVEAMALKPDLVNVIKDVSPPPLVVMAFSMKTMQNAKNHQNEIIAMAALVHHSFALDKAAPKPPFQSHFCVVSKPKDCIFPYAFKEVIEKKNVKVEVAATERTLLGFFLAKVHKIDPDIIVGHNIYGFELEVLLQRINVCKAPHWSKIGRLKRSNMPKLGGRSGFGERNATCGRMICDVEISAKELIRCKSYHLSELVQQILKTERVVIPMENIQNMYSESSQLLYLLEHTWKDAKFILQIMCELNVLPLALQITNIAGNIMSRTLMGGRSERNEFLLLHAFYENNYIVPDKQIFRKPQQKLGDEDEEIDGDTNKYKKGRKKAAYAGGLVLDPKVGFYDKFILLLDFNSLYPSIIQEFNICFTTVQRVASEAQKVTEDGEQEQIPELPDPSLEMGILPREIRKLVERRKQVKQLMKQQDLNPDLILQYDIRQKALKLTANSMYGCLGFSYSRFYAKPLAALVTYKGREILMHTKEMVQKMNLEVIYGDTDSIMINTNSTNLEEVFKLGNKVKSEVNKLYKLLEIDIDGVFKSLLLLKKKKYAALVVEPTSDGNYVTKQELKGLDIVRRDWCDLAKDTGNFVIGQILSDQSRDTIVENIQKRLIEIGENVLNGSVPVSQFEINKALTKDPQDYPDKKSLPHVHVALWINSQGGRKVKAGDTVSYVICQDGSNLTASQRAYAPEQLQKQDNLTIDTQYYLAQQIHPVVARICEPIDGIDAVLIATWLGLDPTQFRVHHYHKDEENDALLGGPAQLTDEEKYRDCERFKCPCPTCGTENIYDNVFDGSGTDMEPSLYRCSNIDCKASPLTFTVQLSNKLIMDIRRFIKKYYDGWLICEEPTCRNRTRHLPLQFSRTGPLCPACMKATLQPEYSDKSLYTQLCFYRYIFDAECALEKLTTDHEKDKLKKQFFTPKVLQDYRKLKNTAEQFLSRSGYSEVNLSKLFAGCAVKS
The experiment in a line: cross-linking; CX-MS of the SEC-reconstituted CST–PP^FL complex with DSS (0.35–0.75 mM, 25 °C, 30 min), 1 mg/mL.

B1: His6-MBP-PreSc-POLA1^N (domain or fragment, human, UniProt P09884 1-339, looked up)
chain: MAPVHGDDSLSDSGSFVSSRARREKKSKKGRQEALERLKKAKAGEKYKYEVEDFTGVYEEVDEEQYSKLVQARQDDDWIVDDDGIGYVEDGREIFDDDLEDDALDADEKGKDGKARNKDKRNVKKLAVTKPNNIKSMFIACAGKKTADKAVDLSKDGLLGDILQDLNTETPQITPPPVMILKKKRSIGASPNPFSVHTATAVPSGKIASPVSRKEPPLTPVPLKRAEFAGDDVQVESTEEEQESGAMEFEDGDFDEPMEVEEVDLEPMAAKAWDKESEPAEEVKQEADSGKGTVSYLGSFLPDVSCWDIDQEGDSSFSVQEVQVDSSHLPLVKGADEEQ
notes: human POLA1 N-terminal region, POLA1^N, 1–339 aa in the methods (1–335 aa in the results); MBP served as a mass label in negative-stain EM; also called MBP-POLA1^N; MBP-tagged POLA1^N; source: Tni insect cells (baculovirus), purified (Ni-NTA, SEC); not shown: His6, N-terminal, kept; MBP, N-terminal, kept
For B1, the binding result in assay [1] and in assay [2] was “binds” each time. B2: the binding result in assay [3] is on record as “binds”.
